These results are taken from FireProtDB (doi:10.1074/jbc.273.32.19982).

Broadly, the Tm is the temperature at the midpoint of the melting transition.

The conditions of the data set: pH 7, Thermal, CD, Sodium phosphate 5 mM, NaCl 0.2 M, reversible: yes, whole UniProt chain shown.

B1: DNA-binding protein HU 1 wild type, P08821 (protein)
chain: MNKTELINAVAEASELSKKDATKAVDSVFDTILDALKNGDKIQLIGFGNFEVRERSARKGRNPQTGEEIEIPASKVPAFKPGKALKDAVAGK
With B1, for the setting “Bacillus subtilis (strain 168)”, the Tm came out at 48.6 °C.

B2: DNA-binding protein HU wild type, P0A3H0 (protein)
chain: MNKTELINAVAETSGLSKKDATKAVDAVFDSITEALRKGDKVQLIGFGNFEVRERAARKGRNPQTGEEMEIPASKVPAFKPGKALKDAVK
For the protein B2, where the note is “Geobacillus stearothermophilus”, the Tm worked out at 63.9 °C and the “unfolding enthalpy (van 't Hoff)” value came out at 72.8 kcal/mol.
